In article PMC8233230, “RAD51AP1 mediates RAD51 activity through nucleosome interaction” (The Journal of Biological Chemistry, 2021):
Each block holds one molecule with its values, some of them ahead of it.

Experiments:
[1] = tested on: RAD51AP1 full-length, His6/FLAG (human); test: EMSA; details: apparent, EMSA: 50 mM Tris-HCl pH 7.5, 100 mM NaCl, 4 C, 30 min, native 5% PAGE in 0.2x TBE
[2] = molecular target: mononucleosome core particle (NCP) (human) (UniProt P04908); test: native gel or EMSA; apparent; full-length RAD51AP1 with the NCP, free NCP band quantified after ethidium bromide staining, corrected for the diminished staining of NCP-bound DNA
[3] = molecular target: T1, purified human RAD51 (human, UniProt Q06609 1-339); test: far-Western, overlay or dot blot; RAD51AP1/NCP complex separated by EMSA (native gel), transferred to PVDF, membrane incubated with 3 ug/ml purified RAD51 in buffer I at 4 C overnight, bound RAD51 detected with anti-RAD51; details: both partners purified
T1 construct: DNA repair protein RAD51 homolog 1 (RAD51 recombinase), human; also called RAD51 recombinase; source: purified
T1 sequence (looked up): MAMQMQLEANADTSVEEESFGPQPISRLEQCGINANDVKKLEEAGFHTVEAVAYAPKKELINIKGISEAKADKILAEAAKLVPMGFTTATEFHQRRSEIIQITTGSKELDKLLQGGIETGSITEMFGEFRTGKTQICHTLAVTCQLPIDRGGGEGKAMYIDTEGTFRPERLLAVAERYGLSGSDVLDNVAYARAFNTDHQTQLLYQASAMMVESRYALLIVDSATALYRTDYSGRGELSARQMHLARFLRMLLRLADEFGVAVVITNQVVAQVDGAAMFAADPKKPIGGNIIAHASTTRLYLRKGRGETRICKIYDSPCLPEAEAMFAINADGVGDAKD

Molecule: 147 bp dsDNA (Widom 601)
Kd ([1]; 0.1 uM DNA, EtBr stain): 12 nM

Molecule: NCP (Widom 601, 147 bp)
Kd ([1]; corrected for EtBr staining (111/5.2; uncorrected 111 nM), 0.2 uM NCP): 21 nM

The remaining lines, values ahead:

Kd [2]: 21 nM
Molecule: full-length MBP-/His6-RAD51AP1 (from UniProt Q96B01-2 1-335) (natural protein)

binding result [3]: binds
B1: His6-/FLAG-tagged human RAD51AP1 (natural protein, UniProt Q96B01-2 1-335, looked up)
chain: MVRPVRHKKPVNYSQFDHSDSDDDFVSATVPLNKKSRTAPKELKQDKPKPNLNNLRKEEIPVQEKTPKKRMALDDKLYQRDLEVALALSVKELPTVTTNVQNSQDKSIEKHGSSKIETMNKSPHISNCSVASDYLDLDKITVEDDVGGVQGKRKAASKAAAQQRKILLEGSDGDSANDTEPDFAPGEDSEDDSDFCESEDNDEDFSMRKSKVKEIKKKEVKVKSPVEKKEKKSKSKCNALVTSVDSAPAAVKSESQSLPKKVSLSSDTTRKPLEIRSPSAESKKPKWVPPAASGGSRSSSSPLVVVSVKSPNQSLRLGLSRLARVKPLHPNATST
notes: numbers count on: RAD51AP1 isoform 2; also called His6/FLAG-tagged RAD51AP1; full-length FLAG-tagged RAD51AP1; source: expressed and purified
